Assays:
[1] = molecular target: GST-HK10_(544–563), GST fusion of the human K10 C-terminal tail region (UniProt P13645); assay: SPR; BIAcore X, 25°C; GST-HK10(544–563) (500 nM) captured on immobilised goat anti-GST IgG, GST alone on the reference cell; SpsD passed over in increasing concentrations, 5 µl/min; KD from equilibrium response
[2] = molecular target: Canine fibrinogen (canine) (UniProt P68213); assay: SPR; BIAcore X, 25°C; ligand covalently immobilised on CM5 chip; SpsD passed over in increasing concentrations without regeneration, 5 µl/min, PBS with 0.005% Tween 20; KD from equilibrium response against concentration
Human fibrinogen (human) = Human fibrinogen (human) (UniProt P02671); assay: as above
Chain of Human fibrinogen (human) (P02671 other isoform, or with tags, fused parts or gaps, chain 1 of 3): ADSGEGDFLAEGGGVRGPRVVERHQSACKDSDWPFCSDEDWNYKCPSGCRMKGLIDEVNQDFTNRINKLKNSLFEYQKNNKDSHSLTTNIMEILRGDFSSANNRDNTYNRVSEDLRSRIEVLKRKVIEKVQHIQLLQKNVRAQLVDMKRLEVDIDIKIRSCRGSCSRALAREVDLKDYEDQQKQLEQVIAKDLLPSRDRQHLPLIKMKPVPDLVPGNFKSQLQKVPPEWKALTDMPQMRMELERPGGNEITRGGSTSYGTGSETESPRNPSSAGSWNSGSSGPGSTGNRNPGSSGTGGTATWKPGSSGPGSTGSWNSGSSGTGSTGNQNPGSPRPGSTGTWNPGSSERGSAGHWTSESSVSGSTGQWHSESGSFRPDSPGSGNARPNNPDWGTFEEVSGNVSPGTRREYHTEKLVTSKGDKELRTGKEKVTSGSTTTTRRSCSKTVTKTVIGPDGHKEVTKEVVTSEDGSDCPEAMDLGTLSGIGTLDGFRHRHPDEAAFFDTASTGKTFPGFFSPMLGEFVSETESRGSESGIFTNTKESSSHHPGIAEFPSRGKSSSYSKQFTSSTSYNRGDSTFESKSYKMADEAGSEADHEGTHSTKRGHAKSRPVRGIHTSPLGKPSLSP
Chain of Human fibrinogen (human) (P02675 31-491, chain 2 of 3, further chain): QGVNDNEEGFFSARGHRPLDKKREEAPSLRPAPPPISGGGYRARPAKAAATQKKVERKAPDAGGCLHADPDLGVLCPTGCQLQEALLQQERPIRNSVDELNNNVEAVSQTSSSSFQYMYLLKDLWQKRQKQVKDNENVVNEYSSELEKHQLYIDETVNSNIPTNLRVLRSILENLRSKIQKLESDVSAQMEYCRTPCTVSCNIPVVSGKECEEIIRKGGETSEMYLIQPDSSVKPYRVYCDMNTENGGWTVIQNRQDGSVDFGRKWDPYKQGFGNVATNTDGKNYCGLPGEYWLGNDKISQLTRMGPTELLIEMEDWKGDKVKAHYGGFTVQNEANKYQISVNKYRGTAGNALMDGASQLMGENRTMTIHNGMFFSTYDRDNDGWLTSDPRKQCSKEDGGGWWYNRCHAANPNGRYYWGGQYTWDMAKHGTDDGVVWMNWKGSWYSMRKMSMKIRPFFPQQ
Chain of Human fibrinogen (human) (P02679 other isoform, or with tags, fused parts or gaps, chain 3 of 3, further chain): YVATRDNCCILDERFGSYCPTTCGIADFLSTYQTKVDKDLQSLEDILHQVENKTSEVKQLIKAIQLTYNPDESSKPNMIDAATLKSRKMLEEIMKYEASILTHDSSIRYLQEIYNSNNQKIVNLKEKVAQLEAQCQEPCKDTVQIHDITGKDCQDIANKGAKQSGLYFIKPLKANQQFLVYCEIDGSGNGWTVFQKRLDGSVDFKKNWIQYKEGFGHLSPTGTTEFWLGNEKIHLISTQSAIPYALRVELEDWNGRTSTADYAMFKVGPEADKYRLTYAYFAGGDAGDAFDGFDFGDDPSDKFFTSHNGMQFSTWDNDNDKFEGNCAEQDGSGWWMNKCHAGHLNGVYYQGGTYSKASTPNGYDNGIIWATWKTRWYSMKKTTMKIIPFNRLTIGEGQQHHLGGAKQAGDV

[3] = molecular target: Human plasma fibronectin (human); assay: as above
[4] = molecular target: α-elastin, a heterogeneous mixture of soluble peptides obtained from human lung (human); assay: as above
[5] = molecular target: GST-Fbgγ_(395–411), GST fusion of the human Fbg γ-chain sequence (human) (UniProt P02679); assay: ELISA; GST-Fbg γ chain or GST coated on microtiter wells; increasing concentrations of SpsD167–519; detected with anti-6-His IgG
[6] = molecular target: Mouse cytokeratin 10 (residues 1–570) (mouse) (UniProt P02535); assay: ELISA; mouse K10 proteins, GST-HK10(544–563) or GST coated on wells; increasing concentrations of SpsD167–519; detected with anti-SpsD37–519 IgG
Chain of Mouse cytokeratin 10 (residues 1–570) (mouse) (P02535 whole entry, the tested form may be a part): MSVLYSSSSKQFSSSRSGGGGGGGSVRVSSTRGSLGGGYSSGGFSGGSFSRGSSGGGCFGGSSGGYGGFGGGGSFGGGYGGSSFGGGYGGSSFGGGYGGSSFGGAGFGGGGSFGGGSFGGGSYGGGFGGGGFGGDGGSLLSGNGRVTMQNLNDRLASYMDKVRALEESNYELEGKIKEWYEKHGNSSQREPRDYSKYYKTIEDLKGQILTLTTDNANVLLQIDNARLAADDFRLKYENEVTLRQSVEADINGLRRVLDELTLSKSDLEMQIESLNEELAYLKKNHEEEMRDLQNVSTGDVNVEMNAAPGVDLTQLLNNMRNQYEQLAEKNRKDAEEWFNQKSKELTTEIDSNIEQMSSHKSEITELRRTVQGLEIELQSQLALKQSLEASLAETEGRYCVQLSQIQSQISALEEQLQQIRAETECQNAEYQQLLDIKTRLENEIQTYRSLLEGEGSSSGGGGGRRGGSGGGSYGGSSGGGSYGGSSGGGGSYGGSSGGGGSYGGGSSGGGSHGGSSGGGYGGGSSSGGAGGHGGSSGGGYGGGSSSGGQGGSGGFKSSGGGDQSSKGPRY

[7] = molecular target: Mouse cytokeratin 10 C-terminal tail region (MK10_(454–570)) (mouse) (UniProt P02535); assay: as above
Chain of Mouse cytokeratin 10 C-terminal tail region (MK10_(454–570)) (mouse) (P02535 454-570): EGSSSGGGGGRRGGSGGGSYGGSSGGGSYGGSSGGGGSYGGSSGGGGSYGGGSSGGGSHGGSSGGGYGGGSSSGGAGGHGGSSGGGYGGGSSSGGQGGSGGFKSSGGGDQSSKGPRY

[8] = molecular target: N-terminal fragment of fibronectin (N29) containing the five N-terminal type I modules (human); assay: ELISA; Fn (1 µg/well) and Fn fragments (250 ng/well) coated; SpsD167–519 in solution, detected with anti-SpsD37–519 antibody; FnBPB163–480 as control, detected with anti-FnBPB163–480 IgG
[9] = molecular target: Recombinant fibronectin fragment, residues 1266–1908 (extra domain B plus type III modules 8–13 and the initial region of module 14) (UniProt P02751); assay: as above
Chain of Recombinant fibronectin fragment, residues 1266–1908 (extra domain B plus type III modules 8–13 and the initial region of module 14) (P02751 1266-1908): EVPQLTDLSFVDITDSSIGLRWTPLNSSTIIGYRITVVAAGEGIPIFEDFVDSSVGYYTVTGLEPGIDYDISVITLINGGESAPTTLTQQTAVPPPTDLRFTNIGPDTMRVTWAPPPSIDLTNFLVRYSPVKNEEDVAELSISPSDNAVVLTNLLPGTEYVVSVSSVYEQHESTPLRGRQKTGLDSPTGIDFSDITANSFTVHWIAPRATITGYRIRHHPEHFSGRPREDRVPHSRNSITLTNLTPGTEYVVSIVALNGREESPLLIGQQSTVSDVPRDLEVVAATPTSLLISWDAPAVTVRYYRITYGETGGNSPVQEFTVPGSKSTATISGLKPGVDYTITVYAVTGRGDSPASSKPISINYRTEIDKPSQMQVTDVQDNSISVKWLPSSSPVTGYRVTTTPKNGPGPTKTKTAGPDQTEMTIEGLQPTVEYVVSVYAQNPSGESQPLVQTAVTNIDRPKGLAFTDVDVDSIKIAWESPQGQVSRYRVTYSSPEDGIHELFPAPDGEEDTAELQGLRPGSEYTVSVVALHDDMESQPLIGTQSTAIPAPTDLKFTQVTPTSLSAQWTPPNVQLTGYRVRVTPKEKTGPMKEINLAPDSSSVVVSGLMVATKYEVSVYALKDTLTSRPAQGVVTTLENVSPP

[10] = molecular target: GST-HK10_(544–563), GST fusion of the human K10 C-terminal tail region (UniProt P13645); assay: ELISA; settings: value read at the highest concentration, 20 µM protein added; immobilized K10 (panel title GST-HK10 544-563) coated in bicarbonate buffer overnight; parent: est. 1.2; read off a plot
[11] = molecular target: Human fibrinogen, P02671-2;P02675;P02679-2; assay: ELISA; settings: value read at the highest concentration, 16 µM protein added; immobilized human Fbg coated in bicarbonate buffer overnight; parent: est. 1.5; read off a plot
Human plasma fibronectin = assay: ELISA; settings: value read at the highest concentration, 20 µM protein added; immobilized Fn coated in bicarbonate buffer overnight; parent: est. 1.7; read off a plot
[12] = molecular target: α-elastin, a heterogeneous mixture of soluble peptides obtained from human lung; assay: ELISA; settings: value read at the highest concentration, 20 µM protein added; immobilized α-elastin coated in bicarbonate buffer overnight; parent: est. 1.8; read off a plot

Chain of GST-HK10_(544–563), GST fusion of the human K10 C-terminal tail region (P13645 544-563): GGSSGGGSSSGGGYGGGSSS

## SpsD_(37–519), A domain (N1N2N3 region) of SpsD from S. pseudintermedius strain 326 (domain or fragment)
[1]
  Kd: 906 nM
[2]
  Kd: 367 nM
Human fibrinogen (human)
  Kd: 380 nM
[3]
  Kd: 2350 nM
[4]
  Kd: 1200 nM

## SpsD_(167–519), N2N3 subdomains of the A domain of SpsD from S. pseudintermedius strain 326 (domain or fragment)
[5]
  EC50: 320 nM
[6]
  EC50: 1020 nM
[7]
  EC50: 1200 nM
[8]
  EC50: 2210 nM
[9]
  EC50: 1970 nM
[1]
  Kd: 840 nM
[2]
  Kd: 341 nM
Human fibrinogen (human)
  Kd: 360 nM
[3]
  Kd: 2160 nM
[4]
  Kd: 1020 nM

## SpsD_(167–519), N2N3 subdomains of the A domain of SpsD from S. pseudintermedius strain 326 F288A
[10]
  response: 0.97 A490
[11]
  response: 0.11 A490
Human plasma fibronectin
  response: 1.6 A490
[12]
  response: 0.67 A490
